Results from US20030124132A1 (University of Texas, published 2003).

What was measured:
[1] = test system: L540 human Hodgkin's disease tumors; test: Growth of L540 tumors after immunoglobulin-tTF conjugate and/or etoposide; assay type: in vivo, mice; conditions: day 14
Experimental: (§1) The tumor test systems were: i) L540 human Hodgkin's disease tumors growing in SCID mice; ii) C1300 Muγ (interferon-secreting) neuroblastoma growing in nu/nu mice; iii) H460 human non-small cell lung carcinoma growing in nu/nu mice. To establish solid tumors, 1.5×10^7 tumor cells were injected subcutaneously into the right anterior flank of SCID or BALB/c nu/nu mice (Charles River Labs., Wilmingham, Mass.). When the tumors had grown to various diameters, mice were assigned to different experimental groups, each containing 4 to 9 mice.
(§2) Other mice received equivalent quantities of bispecific antibody alone. The injections were performed over ˜45 seconds into one of the tail veins, followed by 200 μl of saline. The infusions were repeated six days later. Perpendicular tumor diameters were measured at regular intervals and tumor volumes were calculated.
Mice bearing L540 human Hodgkin's disease tumors were treated with a complex of tTF219 and a bispecific antibody together with the anti-cancer drug, etoposide, at a conventional dose.

[2] = test system: tissue factor on HUVEC cells; test: FACS analysis of tissue factor expression on endothelial cells; assay type: cell-based, human; conditions: TNFα 500 U/ml, LPS 10 μg/ml, VEGF 1 nM, alone or in combination, 6 h
Experimental: To analyze tissue factor expression on the surface of endothelial cells, HUVEC cells were incubated with TNFα (500 U/ml), LPS (10 μg/ml) or vascular endothelial growth factor (VEGF, 1 nM) alone or in combination for 6 h at 37°. Cells were then detached and stained for surface expression of human tissue factor with a sheep-anti-human tissue factor antibody (Haemochrom, Essen, Germany) and an appropriate FITC-conjugated secondary antibody. Fluorescent cells were detected on a flow cytometer (Becton Dickinson, San Jose, Calif.).

mouse endothelial cells = test: Cell based two stage coagulation assay after TNFα stimulation
Experimental: (§3) Mouse endothelial cells were seeded in 48 well tissue culture plates and allowed to adhere overnight. Cells were stimulated with TNFα at the following concentrations: 500 U/ml; 100 U/ml; 20 U/ml; 4 U/ml; 0.8 U/ml; 0.16 U/ml; and with medium only.
Endothelial cells were also tested for coagulant activity in a cell based two stage coagulation assay. After incubation with TNFα, cells were washed and incubated with coagulation factor mix (0.5 μg/ml factor VIIa in a mix containing 2.8 μg/ml factor IX, 3.4 μg/ml factor X, 50 μM phospholipids, in calcium buffer). The supernatant of wells was transferred into a 96 well ELISA plate. Substrate S2765 was added and Factor Xa generation measured.

[3] = test system: VCAM-1 on mouse endothelial cells; test: VCAM-1 upregulation on endothelial cells by TNFα (FACS); assay type: cell-based
Experimental: as §3
Endothelial cells were then investigated for upregulation of the adhesion molecule VCAM-1 by fluorescence activated cell stain (FACS). To this end, cells were stained with an antibody against murine VCAM-1, followed by an appropriate FITC-conjugated secondary antibody. Fluorescent cells were detected on a flow cytometer (Becton Dickinson, San Jose, Calif.).

bEnd 3 cells = test: Cell bound coagulation assay on stimulated endothelial cells (Factor Xa generation); assay type: cell-based, mouse
Experimental: (§4) To assay the coagulation induction of stimulated versus unstimulated endothelial cells, bend 3 cells were seeded in 48 well tissue culture plates at a density of 1×10^4 cells per well and allowed to adhere overnight. Cells were stimulated with endotoxin (0.5 μg/ml and 10 μg/ml) or TNFα (500 U/ml) for 4 h at 37° C. […] After incubation for 45 min at room temperature, cells were washed and incubated with various coagulation factor mixes as follows: (1) 0.5 μg/ml factor VIIa in a mix containing 2.8 μg/ml factor IX, 3.4 μg/ml factor X, 50 μM phospholipids, in calcium buffer (as specified above); (2) 0.01 μg/ml factor VIIa in a mix as in (1); (3) 2 μg/ml factor VII (Calbiochem-Novabiochem, San Diego, Calif.) in a mix as in (1); (4) 2 μg/ml factor VII. 0.01 μg/ml factor VIIa in a mix as in (1). The supernatant of wells was transferred into a 96 well ELISA plate. Substrate S2765 was added and Factor Xa generation measured alongside different concentrations of Factor Xa standard (7 nkatS2222; 0.7 nkatS2222; 0.07 nkatS2222). OD405 nm values were calculated as nkatS2222 Factor Xa from the Factor Xa standard curve.
as §4, with “bEnd” for “To assay the coagulation induction of stimulated versus unstimulated endothelial cells, bend”, “with” for “with various”, “mix” for “mixes”, “follows:” for “follows: (1)”, “buffer;” for “buffer (as specified above); (2) 0.01 μg/ml factor VIIa in a mix as in (1); (3) 2 μg/ml factor VII (Calbiochem-Novabiochem, San Diego, Calif.) in a mix as in (1); (4) 2 μg/ml factor VII. 0.01 μg/ml factor VIIa in a mix as in (1). The”

[4] = test system: 3LL mouse lung carcinoma vessels; test: In vivo tumor thrombosis by tTF, 3LL; set-up: species or system C57BL/6 mice; conditions: large (>800 mm^3) tumors
Source text: (§5) Tumor test systems were of four types: i) 3LL mouse lung carcinoma growing subcutaneously in C57BL/6 mice; ii) C1300 mouse neuroblastoma growing subcutaneously in BALB/c nu/nu mice; iii) HT29 human colorectal carcinoma growing subcutaneously in BALB/c nu/nu mice; and iv) C1300 Muγ mouse neuroblastoma growing subcutaneously in BALB/c nu/nu mice. The C1300 Muγ tumor is an interferon-γ secreting transfectant derived from the C1300 tumor (Watanabe et al., 1989).
(§6) To establish tumors, 10^6 to 1.5×10^7 tumor cells were injected subcutaneously into the right anterior flank of the mice. When tumors had grown to various sizes, mice were randomly assigned to different study groups. […] Fab′, or bispecific antibody. Other mice received equivalent quantities IgG, Fab′ or bispecific antibody alone. The injections were performed slowly into one of the tail veins over approximately 45 seconds, usually followed by 200 μl of saline.
(§7) Twenty-four hours after being injected with tTF or immunoglobulin-tTF conjugates, the mice were anesthetized with metophane and were exsanguinated by perfusion with heparinized saline. Tumors and normal tissues were excised and immediately fixed in 3% (v/v) formalin. Paraffin sections were cut and stained with hematoxylin and eosin. Blood vessels having open lumens containing erythrocytes and blood vessels containing thrombi were counted. […]

[5] = test system: C1300 mouse neuroblastoma vessels; test: In vivo tumor thrombosis by tTF, C1300; set-up: species or system BALB/c nu/nu mice
Source text: as §5, §6, §7

[6] = test system: HT29 (human colorectal carcinoma) xenograft; test: Tumor necrosis by tTF constructs with Factor VIIa, HT29 xenograft; assay type: in vivo, BALB/c nu/nu mice; conditions: single agents; 24 hours
[7] = test system: C1300 Muγ mouse neuroblastoma vessels; test: In vivo tumor thrombosis by tTF, C1300 Muγ; set-up: species or system BALB/c nu/nu mice
Source text: as §5, §6, §7

C1300 Muγ tumors = test: Anti-tumor effects of tTF and immunoglobulin-tTF in C1300 Muγ tumors; assay type: in vivo, nu/nu mice; conditions: 300 mm^3 tumors
Experimental: as §1, §2
Mice bearing small (300 mm^3) C1300 Muγ tumors were injected intravenously with 16-20 μg tTF219. The treatment was repeated one week later. […] One week after the second treatment with tTF219, tumors were 60% of the size of tumors in mice receiving diluent alone. The greater effectiveness of the second injection probably derives from the greater thrombotic action of tTF219 on vessels in large tumors, observed above.
Mice bearing small (300 mm^3) subcutaneous C1300 Muγtumors were treated with tTF219 or with a complex of tTF219 and a bispecific antibody, OX7 Fab′/10H10 Fab′, not directed to a component of the tumor environment. The treatment was repeated 6 days later.

[8] = test system: A20 lymphoma cells (I-A^d positive), mouse or human plasma; test: In vitro coagulation assay on A20 cells with capture bispecific antibody B21-2/10H10; assay type: cell-based
[9] = test system: HT29 human colorectal carcinomas; test: Anti-tumor effects of tTF219 in HT29 tumors; assay type: in vivo, Nu/nu mice; conditions: large (1200 mm^3) tumors, i.v.
Experimental: Anti-tumor effects were also observed in mice bearing HT29 human colorectal carcinomas. Nu/nu mice bearing large (1200 mm^3) tumors on their flanks were injected intravenously with tTF219 or PBS (control), and growth of the tumors was monitored each day for 10 days. The tumors in the tTF219 treated mice discontinued growth for about 7 days after treatment, whereas the tumors in mice treated with PBS continued to grow unchecked.

[10] = test system: H460 human lung carcinomas; test: Anti-tumor effects of tTF219 in H460 tumors; assay type: in vivo, nu/nu mice
Experimental: as §1, §2
In addition to the effects in mice bearing C1300 Muγ tumors, similar anti-tumor effects were observed using other tumor types. […] The second treatment with tTF219 was given when the tumors were larger (900 mm^3) and caused the tumors to regress to 550 mm^3 before regrowing.

COc1cc([C@@H]2c3cc4c(cc3[C@@H](O[C@@H]3O[C@@H]5CO[C@@H](C)O[C@H]5[C@H](O)[C@H]3O)[C@H]3COC(=O)[C@H]23)OCO4)cc(OC)c1O [etoposide]
average tumor volume [1]: 1400 mm^3

TNFα
tissue factor expression on the surface of HUVEC [2]: upregulated tissue factor expression | TNFα at which an increase in coagulation versus negative control could be detected (mouse endothelial cells): 0.16 U/ml | dose for coagulation increase lower than for VCAM-1 increase (mouse endothelial cells): 125 fold | TNFα required for a measurable increase of VCAM-1 expression [3]: 20 U/ml | Factor Xa generation (bEnd 3 cells; cells stimulated with TNFα (500 U/ml), then incubated with row agent (row Medium = stimulant alone), mix with 0.5 μg/ml factor VIIa): 0.35 nkats2222 | Factor Xa generation due to Factor VIIa production (bEnd 3 cells; cells stimulated with TNFα (row Medium = stimulant alone), mix with 2 μg/ml factor VII and 0.01 μg/ml factor VIIa): 1.23 nkats2222

B1: tTF219: residues 1-219 of TF plus an additional glycine at the N-terminus (protein)
chain: GSGTTNTVAAYNLTWKSTNFKTILEWEPKPVNQVYTVQISTKSGDWKSKCFYTTDTECDLTDEIVKDVKQTYLARVFSYPAGNVESTGSAGEPLYENSPEFTPYLETNLGQPTIQSFEQVGTKVNVTVEDERTLVRRNNTFLSLRDVFGKDLIYTLYYWKSSSSGKKTAKTNTNEFLIDVDKGENYCFSVQAVIPSRTVNRKSTDSPVECMGQEKGEFRE
tumor vessels thrombosed, average [4]: 62% | tumor vessel thrombosis ([5]; large tumors (>1000 mm^3), 24 hours after injection): virtually all vessels were thrombosed | tumor vessel thrombosis ([5]; small (<500 mm^3) tumors): largely unaffected | tumor necrosis [6]: some necrosis | tumor vessel thrombosis ([7]; 24 hours after injection): practically all vessels in all regions of the tumor were thrombosed | tumor vessel thrombosis ([7]; small (<500 mm^3) tumors): largely unaffected | tumor size, of tumors in mice receiving diluent alone (C1300 Muγ tumors; 16-20 μg i.v., repeated one week later, one week after second treatment): 60% | tumor size, of controls receiving diluent alone (C1300 Muγ tumors; treatment repeated 6 days later, fourteen days after the first injection): 75% | plasma coagulation time ([8]; 10^−10 M tTF219, 13.5 nM Factor VIIa): 20 s | plasma coagulation time ([8]; 10^−10 M tTF219, absence of Factor VIIa): 60 s | increase in coagulation-inducing potency ([8]; presence of 0.1 nM Factor VIIa): 2-5 fold | enhancement in coagulation-inducing potency ([8]; presence of 13.5 nM Factor VIIa): ~100 fold | time of discontinued tumor growth after treatment [9]: about 7 days | effect on growth rate ([10]; first treatment, tumors 250 mm^3): little effect on growth rate | tumor volume to which tumors regressed ([10]; second treatment, given at 900 mm^3): 550 mm^3
